Reference: patent US20160017024A1 (Five Prime, published 2016)

How the values were obtained:
[1] = molecular target: full length human LTK with an HA tag at the C-terminus, expressed on transfected cells (human, UniProt P29376 17-864); assay: cell-based or functional assay
Mouse LTK ECD-Fc = molecular target: T1, Mouse LTK ECD-Fc (mouse); assay: SPR (Biacore T100), ECD-Fc captured on Protein A CM4 chip
T1 construct: also called mouse LTK ECD-Fc (human Fc)
Experimental: The kₐ, kd, and KD for binding of human FAM150A to human LTK ECD-Fc (SEQ ID NO: 23) and mouse LTK ECD-Fc (SEQ ID NO: 25) was determined as follows. Binding kinetics of FAM150A to human and mouse LTK ECD-Fc fusion proteins was determined using Biacore T100 SPR (GE Healthcare Life Sciences, Piscataway, N.J.). LTK ECD-Fc fusions were captured on a CM4 sensor chip immobilized with Protein A (Thermo Scientific, Rockford, Ill.). HBS-P (GE Healthcare Life Sciences, Piscataway, N.J.) was used as the running and dilution buffer. Capture levels of the ECD-Fc fusions were adjusted to approximately 300-500RU so that binding values would be greater than the levels of non-specific binding to the reference flow cell. FAM150A was injected at […] (100 nM, 33.3 nM, 11.1 nM, 3.7 nM, 1.2 nM, 0.41 nM, 0.13 nM, 0.046 nM and 0 nM) for 120 seconds. The association constant, dissociation constant, and affinity of FAM150A for LTK Fc-ECD fusions was calculated using the Biacore T100 Evaluation software package using the 1:1 binding model.

full length human LTK with an HA tag at the C-terminus, expressed on transfected cells, sequence (P29376 17-864): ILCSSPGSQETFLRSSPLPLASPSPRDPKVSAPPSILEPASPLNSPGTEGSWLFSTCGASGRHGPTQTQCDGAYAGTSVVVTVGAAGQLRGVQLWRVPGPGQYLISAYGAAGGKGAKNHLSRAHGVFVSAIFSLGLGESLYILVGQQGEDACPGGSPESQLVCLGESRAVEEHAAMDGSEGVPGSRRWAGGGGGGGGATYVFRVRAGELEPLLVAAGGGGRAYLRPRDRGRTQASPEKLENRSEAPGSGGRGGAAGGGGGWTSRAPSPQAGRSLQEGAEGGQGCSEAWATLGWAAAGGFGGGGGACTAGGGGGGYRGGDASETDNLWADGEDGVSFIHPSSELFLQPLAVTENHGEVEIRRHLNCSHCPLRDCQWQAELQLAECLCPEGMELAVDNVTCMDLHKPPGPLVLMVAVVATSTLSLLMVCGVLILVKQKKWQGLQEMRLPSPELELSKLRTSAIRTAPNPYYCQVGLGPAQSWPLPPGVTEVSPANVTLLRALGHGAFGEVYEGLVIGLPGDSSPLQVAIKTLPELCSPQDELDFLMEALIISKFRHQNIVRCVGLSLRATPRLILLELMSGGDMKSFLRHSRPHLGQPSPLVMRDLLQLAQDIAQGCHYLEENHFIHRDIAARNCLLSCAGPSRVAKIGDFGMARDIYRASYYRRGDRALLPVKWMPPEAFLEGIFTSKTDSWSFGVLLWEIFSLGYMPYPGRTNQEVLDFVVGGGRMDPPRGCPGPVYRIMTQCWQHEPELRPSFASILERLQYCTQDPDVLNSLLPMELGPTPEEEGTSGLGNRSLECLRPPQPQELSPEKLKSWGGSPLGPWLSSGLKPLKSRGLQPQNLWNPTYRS
T1 sequence (chain, as listed by the source limits assumed): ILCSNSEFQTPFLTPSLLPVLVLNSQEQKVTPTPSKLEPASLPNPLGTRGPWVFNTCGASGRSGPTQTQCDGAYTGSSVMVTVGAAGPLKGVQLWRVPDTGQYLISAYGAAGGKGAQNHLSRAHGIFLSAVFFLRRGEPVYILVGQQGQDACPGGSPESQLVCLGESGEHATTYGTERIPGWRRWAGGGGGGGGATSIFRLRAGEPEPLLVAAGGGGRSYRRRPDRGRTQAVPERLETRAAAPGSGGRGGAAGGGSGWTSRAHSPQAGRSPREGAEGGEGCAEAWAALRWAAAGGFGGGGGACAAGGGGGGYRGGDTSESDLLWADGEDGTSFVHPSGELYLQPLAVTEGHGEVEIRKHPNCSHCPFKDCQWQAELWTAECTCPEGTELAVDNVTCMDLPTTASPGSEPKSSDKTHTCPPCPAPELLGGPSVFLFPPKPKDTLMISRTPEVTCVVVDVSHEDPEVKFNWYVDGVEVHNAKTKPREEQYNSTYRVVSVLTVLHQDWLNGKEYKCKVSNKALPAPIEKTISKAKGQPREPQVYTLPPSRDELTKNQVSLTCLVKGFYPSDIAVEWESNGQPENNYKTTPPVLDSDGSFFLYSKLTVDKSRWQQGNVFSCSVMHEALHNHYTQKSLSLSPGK

Row | Binder | EC50 for FAM150A-induced LTK phosphorylation [1] [nM] | induction of LTK phosphorylation relative to an unrelated control protein [1] [fold] | fold lower affinity than to human LTK ECD-Fc (Mouse LTK ECD-Fc) [fold]
1 | Human FAM150A (ligand, Expressed in HEK 293 6E cells (or HEK293T supernatant) and secreted) RPRGRRGARVTDKEPKPLLFLPAAGAGRTPSGSRSAEIFPRDSNLKDKFIKHFTGPVTFSPECSKHFHRLYYNTRECSTPAYYKRCARLLTRLAVSPLCSQT | 1.96 | > 20 | ~30
2 | Human FAM150B (ligand) GAEPREPADGQALLRLVVELVQELRKHHSAEHKGLQLLGRDCALGRAEAAGLGPSPEQRVEIVPRDLRMKDKFLKHLTGPLYFSPKCSKHFHRLYHNTRDCTIPAYYKRCARLLTRLAVSPVCMEDKQ |  | > 2 | 
